T1: human TREM-like transcript-1 (TLT-1) (human, UniProt Q86YW5 16-311)
T1 construct: whole, on cells; bands of 35 and 25 kDa; also called hTLT-1; TLT-1 on (HEK)293T transfected cells
T1 sequence (looked up): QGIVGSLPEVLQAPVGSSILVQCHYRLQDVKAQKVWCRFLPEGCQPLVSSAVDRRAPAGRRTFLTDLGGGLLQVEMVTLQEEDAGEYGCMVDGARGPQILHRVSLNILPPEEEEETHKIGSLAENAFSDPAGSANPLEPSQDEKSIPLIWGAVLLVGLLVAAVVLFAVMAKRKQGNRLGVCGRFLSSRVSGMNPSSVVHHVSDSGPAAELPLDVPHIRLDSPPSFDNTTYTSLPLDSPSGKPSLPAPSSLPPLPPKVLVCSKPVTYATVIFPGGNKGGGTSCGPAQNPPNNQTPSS

B1: scFv A7 (scFv)
scFv: MAEVQLLESGGGLVQPGGSLRLSCAASGFTFSSYAMSWVRQAPGKGLEWVSAIGSYGSATAYADSVKGRFTISRDNSKNTLYLQMNSLRAEDTAVYYCAKNGYDFDYWGQGTLVTVSSGGGGSGGGGSGGGGSTDIQMTQSPSSLSASVGDRVTITCRASQSISSYLNWYQQKPGKAPKLLIYNASGLQSGVPSRFSGSGSGTDFTLTISSLQPEDFATYYCQQSAANPSTFGQGTKVEIKRAAAHHHHHHGAAEQKLISEEDLNGAA
notes: Human scFv from the Tomlinson I phage library; Soluble form purified on Protein L; also called GenBank DQ375450
B2: scFv A1 (scFv)
scFv: MAEVQLLESGGGLVQPGGSLRLSCAASGFTFSSYAMSWVRQAPGKGLEWVSGIGTTGYATAYADSVKGRFTISRDNSKNTLYLQMNSLRAEDTAVYYCAKGNSGFDYWGQGTLVTVSSGGGGSGGGGSGGGGSTDIQMTQSPSSLSASVGDRVTITCRASQSISSYLNWYQQKPGKAPKLLIYTASTLQSGVPSRFSGSGSGTDFTLTISSLQPEDFATYYCQQSSTDPGTFGQGTKVEIKRAAAHHHHHHGAAEQKLISEEDLNGAA
notes: Human scFv from the Tomlinson I phage library; Soluble form purified on Protein L; also called GenBank DQ375449
B3: scFv A8 (scFv)
scFv: B2 scFv with A59S, G101T, N102A, S103Y, G104T, T184S, S225N, D228Y, G230A
notes: Human scFv from the Tomlinson I phage library; Soluble form purified on Protein L; also called GenBank DQ375451
B4: scFv D1 (scFv)
scFv: B2 scFv with G52A, G101A, G104Y, T184S, S225D, D228S, G230D
notes: Human scFv from the Tomlinson I phage library; Soluble form purified on Protein L; also called GenBank DQ375454
B5: scFv B8 (scFv)
scFv: MAEVQLLESGGGLVQPGGSLRLSCAASGFTFSSYAMSWVRQAPGKGLEWVSNITASGYATAYADSVKGRFTISRDNSKNTLYLQMNSLRAEDTAVYYCAKTTATFDYWGQGTLVTVSSGGGGSGGGGSGGGGSTDIQMTQSPSSLSASVGDRVTITCRASQSISSYLNWYQQKPGKAPKLLIYDASNLQSGVPSRFSGSGSGTDFTLTISSLQPEDFATYYCQQDTASPSTFGQGTKVEIKRAAAHHHHHHGAAEQKLISEEDLNGAA
notes: Human scFv from the Tomlinson I phage library; Soluble form purified on Protein L; also called GenBank DQ375452
B6: scFv C10 (scFv)
scFv: MAEVQLLESGGGLVQPGGSLRLSCAASGFTFSSYAMSWVRQAPGKGLEWVSGISSTGGATTYADSVKGRFTISRDNSKNTLYLQMNSLRAEDTAVYYCAKSTYDFDYWGQGTLVTVSSGGGGSGGGGSGGGGSTDIQMTQSPSSLSASVGDRVTITCRASQSISSYLNWYQQKPGKAPKLLIYGASTLQSGVPSRFSGSGSGTDFTLTISSLQPEDFATYYCQQNADAPTTFGQGTKVEIKRAAAHHHHHHGAAEQKLISEEDLNGAA
notes: Human scFv from the Tomlinson I phage library; Soluble form made in E. coli HB2151 and purified on Protein L (28 kDa); also called clone C10

Here are results for 6 molecules from US20080131423A1 (US Dept. of Health and Human Services, published 2008).

Residue numbers refer to the chain shown, from its start.

Sequence of BSA (P02769 25-607 limits assumed): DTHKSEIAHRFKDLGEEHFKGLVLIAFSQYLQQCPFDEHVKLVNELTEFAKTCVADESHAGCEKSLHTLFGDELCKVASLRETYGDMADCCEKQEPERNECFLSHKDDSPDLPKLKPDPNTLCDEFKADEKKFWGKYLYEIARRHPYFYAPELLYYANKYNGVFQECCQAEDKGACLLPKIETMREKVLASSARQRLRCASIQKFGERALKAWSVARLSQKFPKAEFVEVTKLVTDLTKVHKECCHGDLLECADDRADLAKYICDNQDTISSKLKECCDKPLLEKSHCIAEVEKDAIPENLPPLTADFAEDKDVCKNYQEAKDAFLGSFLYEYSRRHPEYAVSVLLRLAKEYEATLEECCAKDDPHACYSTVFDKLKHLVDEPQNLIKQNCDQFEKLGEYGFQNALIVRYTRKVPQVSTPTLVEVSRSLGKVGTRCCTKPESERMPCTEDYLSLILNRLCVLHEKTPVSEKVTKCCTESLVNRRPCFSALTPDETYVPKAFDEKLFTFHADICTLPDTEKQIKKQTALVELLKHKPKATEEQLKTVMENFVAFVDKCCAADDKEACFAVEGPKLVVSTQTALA

One assay deals with T1, human TREM-like transcript-1 (TLT-1). Put plainly: flow cytometry, purified scFv on TLT-1 transfected cells. Here is the method: For flow cytometric analysis with TLT-1-transfected cells, phage-containing supernatants were prepared from individual colonies as previously described (14). (HEK)293T-TLT-1 transfected cells (2×10⁵ cells) were washed with PBS/1% BSA and incubated with phages (2×10¹⁰ TU) or purified scFv (1 μg/ml). After 1 hr of incubation at 4° C., cells were washed twice with PBS/1% BSA. Phage binding was detected by incubation with mouse anti-M13 monoclonal antibody (Amersham Bioscience, Piscataway, N.J.), followed by incubation with phycoerithrin (PE)-conjugated anti-mouse antibody (Jackson Immunoresearch, West Grove, Pa.). To analyze scFv binding to human platelets, platelets were incubated with 1 μg of purified scFv for 1 hour at 4° C. and washed three times with PBS containing 0.5% sodium azide and 0.5% BSA. ScFv binding was detected using a FITC-conjugated anti-c-myc antibody (Sigma, St Louis, Mo.). TLT-1 expression was detected with a commercial anti-human TLT-1 pAb (R&D Systems, MN) as previously described (10).
As for B1, the binding result was “binds”. For the molecule B2, the binding result was “binds”. Take B3: the binding result is recorded as “binds”. B4: the binding result is “binds”.

The next assay has as its target BSA (UniProt P02769 25-607). Put plainly: phage ELISA, immobilized antigen (data not shown).
On to B5, for which the binding result is recorded as “no binding”.

B1: the binding result was “no binding”. As to B2, the binding result was “no binding”. As for B3, the binding result was “no binding”. In the case of B4, the binding result is reported as “no binding”. Regarding B6, the binding result was “no binding”.
